Test results reported in paper PMC5772350.

Assays:
[1] = molecular target: B5-GS3K (anti-CEA sdAb with C-terminal positively charged tail); experiment: SPR
[2] = molecular target: B5-Rhiz (anti-CEA sdAb fused C-terminally to rhizavidin); experiment: SPR

Question: What does the source list for “Carcinoembryonic antigen (CEA) (from UniProt P06731 35-685) (natural protein)”?
Answer: Activity (%) [1]: 14.3%; Activity (%) [2]: 5%; XA (RU), SPR response to 100 nM CEA [2]: 839 RU
